The RNAGym collection of RNA variant scans (doi:10.1093/molbev/msab373)

B1: Azoarcus group I ribozyme (parent)
chain: GUGCCUUGCGCCGGGAAACCACGCAAGGGAUGGUGUCAAAUUCGGCGAAACCUAAGCGCCCGCCCGGGCGUAUGGCAACGCCGAGCCAAGCUUCGGCGCCUGCGCCGAUGAAGGUGUAGAGACUAGACGGCACCCACCUAAGGCAAACGCUAUGGUGAAGGCAUAGUCCAGGGAGUGGCGAAAGUCACACAAACCGG

Variants of: B1
Assay: reverse-splicing fitness (ratio to wild type); higher = more active; in vitro selection; Mg2+ level not given
How it was run: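 An in vitro group I ribozyme library with randomized positions was T7-transcribed and gel-purified. In triplicate, 10 pmol RNA in EPPS pH 7.5 was reacted with 50 pmoles of a 30-nt RNA substrate for 1 h at 37 °C across several added MgCl2 levels (1–48 mM), then stopped with EDTA. Products were reverse transcribed from a substrate-complementary primer, PCR-amplified and sequenced (HiSeq 4000). Fitness is a variant's read proportion after selection over that before, normalised to wild type.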

Variant | reverse-splicing fitness
C82A A111U A120G C150A C169U | 0.00869
C82A A111U A120G C150A C169A | 0.0108
C82A A111U A120G A145U C150A C169A | 0.00942
C82A A111U A120G A145U C150A C169G | 0.00859
C82A A111U A120G A145U C150A C169U | 0.0069
C82A A111U A120G C150G C169A U176C | 0.00965
C82A A111U A120G C150G C169A U176A | 0.0106
C82A A111U A120G C150G C169A U176G | 0.00672
C82A A111U A120G C150G U176C | 0.00922
C82A A111U A120G C150G U176G | 0.00319
C82A A111U A120G C150G U176A | 0.00663
C82A A111U A120G C150A U176G | 0.0101
C82A A111U A120G C150A U176A | 0.0123
C82A A111U A120G C150A U176C | 0.0188
C82A A111U A120U A145C C150A C169G U176G | 0.0026
C82A A111U A120U A145C C150A C169G U176C | 0.00303
C82A A111U A120U A145C C150A C169G U176A | 0.00303
C82A A111U A120C C150U C169G U176C | 0.0205
C82A A111U A120C C150U C169G U176A | 0.0159
C82A A111U A120C C150U C169G U176G | 0.00747
C82A A111U A120G A145C C150U | 0.00935

Variant | reverse-splicing fitness
C82A A111U A120G A145C C150G | 0.00667
C82A A111U A120G A145C C150A | 0.00759
C82A A111U A120C C150G C169U U176G | 0.0062
C82A A111U A120C C150G C169U U176A | 0.00757
C82A A111U A120C C150G C169U U176C | 0.011
C82A A111U A120G A145G C150A C169U | 0.00929
C82A A111U A120G A145G C150A C169A | 0.0112
C82A A111U A120G A145G C150A C169G | 0.00912
C82A A111U A120G C150A C169G U176C | 0.0227
C82A A111U A120G C150A C169G U176A | 0.0215
C82A A111U A120G C150A C169G U176G | 0.0059
C82A A111U A120G A145C C150U C169A | 0.00869
C82A A111U A120G A145C C150U C169U | 0.00725
C82A A111U A120G A145C C150U C169G | 0.00823
C82A A111U A120G A145C C150U C169A U176C | 0.00677
C82A A111U A120G A145C C150U C169A U176G | 0.00508
C82A A111U A120G A145C C150U C169A U176A | 0.0127
C82A A111U A120U A145C C150A C169U U176A | 0.00277
C82A A111U A120U A145C C150A C169U U176C | 0.00287
C82A A111U A120U A145C C150A C169U U176G | 0.00186
C82A A111U A120C C150G C169U | 0.0101

Variant | reverse-splicing fitness
C82A A111U A120C C150G C169A | 0.0101
C82A A111U A120C C150G C169G | 0.00832
C82A A111U A120G A145C C150A C169G U176A | 0.0253
C82A A111U A120G A145C C150A C169G U176G | 0.00564
C82A A111U A120G A145C C150A C169G U176C | 0.0151
C82A A111U A120G A145U C150U C169G U176C | 0.0147
C82A A111U A120G A145U C150U C169G U176G | 0.00527
C82A A111U A120G A145U C150U C169G U176A | 0.0153
C82A A111U A120G A145U C150U U176G | 0.00672
C82A A111U A120G A145U C150U U176A | 0.0102
C82A A111U A120G A145U C150U U176C | 0.0151
C82A A111U A120G U176A | 0.0127
C82A A111U A120G U176C | 0.0189
C82A A111U A120G U176G | 0.00705
C82A A111U A120G A145C C150U U176C | 0.0114
C82A A111U A120G A145C C150U U176A | 0.0105
C82A A111U A120G A145C C150U U176G | 0.00589
C82A A111U A120G A145G C150A C169G U176A | 0.0172
C82A A111U A120G A145G C150A C169G U176C | 0.0255
C82A A111U A120G A145G C150A C169G U176G | 0.00589
C82A A111U A120G A145G C150U C169G | 0.0105

Variant | reverse-splicing fitness
C82A A111U A120G A145G C150U C169A | 0.0106
C82A A111U A120G A145G C150U C169U | 0.0104
C82A A111U A120G C150G C169G | 0.00782
C82A A111U A120G C150G C169A | 0.00926
C82A A111U A120G C150G C169U | 0.00851
C82A A111U A120G A145U C150A C169U U176G | 0.00491
C82A A111U A120G A145U C150A C169U U176A | 0.0193
C82A A111U A120G A145U C150A C169U U176C | 0.0164
C82A A111U A120C C150U C169A U176G | 0.00841
C82A A111U A120C C150U C169A U176A | 0.0162
C82A A111U A120C C150U C169A U176C | 0.0174
C82A A111U A120G A145G C150G C169A | 0.0092
C82A A111U A120G A145G C150G C169U | 0.00901
C82A A111U A120G A145G C150G C169G | 0.00797
C82A A111U A120G A145C C150A C169A U176A | 0.0128
C82A A111U A120G A145C C150A C169A U176C | 0.00664
C82A A111U A120G A145C C150A C169A U176G | 0.00551
C82A A111U A120G C169G U176A | 0.0219
C82A A111U A120G C169G U176C | 0.0234
C82A A111U A120G C169G U176G | 0.00439
